The target of assay [1] is T1, human IL-33 (R&D Systems, #3625-IL-010/CF) (human, UniProt O95760 112-270).
T1 construct: also called hIL-33; huIL-33
T1 sequence (looked up): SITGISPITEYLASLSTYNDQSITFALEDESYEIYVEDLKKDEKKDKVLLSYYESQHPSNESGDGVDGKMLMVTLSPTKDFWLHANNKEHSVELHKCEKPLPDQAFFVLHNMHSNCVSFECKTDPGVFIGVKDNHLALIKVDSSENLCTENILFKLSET
The assay can be described thus: SPR Biacore T200, 25 C. A digest of the protocol: (§1)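 Antibodies captured via anti-Fc on CM5 chip; IL-33 injected at 3.7–100 nM (three-fold series), 4 min association, 10 min dissociation, 30 μl/min, ADA pH 7.4 buffer with 0.15 M NaCl, EDTA, Tween-20, at 25 °C or 37 °C. KD = koff/kon from 1:1 Langmuir fit; t1/2 = ln(2)/(60*koff).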

Assay [2] deals with T2, cyno IL-33 N-His (cynomolgus monkey).
T2 chain: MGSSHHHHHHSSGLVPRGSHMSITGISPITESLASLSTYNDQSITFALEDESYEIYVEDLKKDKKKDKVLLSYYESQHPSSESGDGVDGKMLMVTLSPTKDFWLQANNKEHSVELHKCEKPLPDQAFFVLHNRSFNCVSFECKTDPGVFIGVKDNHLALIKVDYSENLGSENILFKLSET
The assay is described as follows: SPR Biacore T200, 25 C. In short, it runs like this:
as §1
For orientation: Surface plasmon resonance follows binding to a sensor surface in real time, without labels.

Assay [3] addresses T1, human IL-33 (R&D Systems, …). The assay can be described thus: cell-based or functional assay.
Assay [4] concerns the target T3, cynomolgus monkey N-terminal 6-His-tagged and C-terminal Avi-tagged IL-33 (S112-T270) (cynomolgus monkey).
T3 chain: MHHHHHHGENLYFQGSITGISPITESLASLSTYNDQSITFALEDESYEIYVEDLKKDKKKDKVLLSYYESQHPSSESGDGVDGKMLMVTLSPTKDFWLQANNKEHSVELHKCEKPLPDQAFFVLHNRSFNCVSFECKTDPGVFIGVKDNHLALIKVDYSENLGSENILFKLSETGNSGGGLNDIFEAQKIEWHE
The assay is described as follows: cell-based or functional assay.

Assay [5] addresses T1, human IL-33 (R&D Systems, …). The assay can be described thus: cell-based or functional assay. The source holds these as a separate data set.
Assay [6] has the same target. The assay is described as follows: cell-based or functional assay. This is another data set of the same source.
The target is the same in assay [7]. The assay can be described thus: cell-based or functional assay. The source holds these as a separate data set.
For assay [8], the target named is T3, cynomolgus monkey N-terminal …. The assay is described as follows: cell-based or functional assay.
Assay [9] deals with T4, human IL-33 N-His (human).
T4 chain: T2 chain with S32Y, K64E, S81N, Q105H, R133M, S134H, F135S, Y164S, G169C, S170T
The assay can be described thus: cell-based or functional assay.

Assay [10] concerns the target T5, human IL-33 (construct not stated) (human, UniProt O95760 112-270).
T5 sequence (looked up): T1 sequence (looked up)
The assay is described as follows: cell-based or functional assay.

Residue numbers refer to the chain shown, from its start.

Consider 2 molecules from US20190092852A1 (Genentech, published 2019).

B1: H4H9659P (antibody, IgG4, V domains shown)
VH: QVQLVQSGAEVKKPGASVKVSCKASGYTFNSYGISWVRQAPGQGLEWMGWISSHNGNSHYVQKFQGRVSMTTDTSTSTAYMELRSLRSDDTAVYYCARHSYTTSWYGGFDYWGQGTLVTVSS
VL: DIQMTQSPSSVSASVGDRVTITCRASQGFSSWLAWYQQKPGKAPQLLIYAASSLQSGVPSRFSGSGSGSDFTLTISSLQPEDFATYYCQQANSFPLTFGGGTKVEIK
notes: also called RG7
In assay [1], B1 registered a Kd of 1.09 nM, a koff of 0.000499 s⁻¹, a kon of 456000 M⁻¹ s⁻¹ and a t1/2 of 23 min. Also, in assay [2], binding was put at a Kd of 2.61 nM, the dissociation rate constant (koff) was found to be 0.000479 s⁻¹, the kon was determined as 183000 M⁻¹ s⁻¹ and the t1/2 was found to be 24 min. In addition, in [3], the “IC50; SEAP reporter (OD 620), HEK-BLUE IL-33/IL-1beta cells, 10 pM hIL-33” value stood at 9.2e-11 M. For the same molecule, in assay [4], the “IC50; SEAP reporter (OD 620), HEK-BLUE IL-33/IL-1beta cells, 5 pM cyno IL-33 (5pM cIL-33-Nhis)” value was determined as 6.6e-08 M. Moreover, the “IC50, IL-33-induced phospho-p38 in primary human basophils, 500 pM hIL-33” value in assay [5] was found to be 6.7e-13 M. Moreover, in [6], the “IC50 (read off the curve)” value is about 0.0007 nM.

B2: 10C12.38.H6.87Y.58I IgG4 (antibody, V domains shown)
VH: EVQLVESGGGLVQPGGSLRLSCAASGFTFSSFSMSWVRQAPGKGLEWVATISGGKTFTDYVDSVKGRFTISRDDSKNTLYLQMNSLRAEDTAVYYCTRANYGNWFFEVWGQGTLVTVSS
VL: EIVLTQSPATLSLSPGERATLSCRASESVAKYGLSLLNWFQQKPGQPPRLLIFAASNRGSGIPARFSGSGSGTDFTLTISSLEPEDFAVYYCQQSKEVPFTFGQGTKVEIKR
notes: also called anti-IL33 10C12.38.H6.87Y.58I IgG4
With B2, in [7], the “HEK-BLUE SEAP reporter IC50” value was determined as 0.0024 nM; the “IFN-γ secretion from primary NK cells, IC50” value was 0.03 nM; the “phospho-p38 in primary basophils, IC50” value turned out to be 0.00015 nM. The “HEK-BLUE SEAP reporter IC50” value in assay [8] was determined as 4.2 nM. For the same molecule, in [1], the affinity, expressed as Kd, was 0.133 nM; the koff turned out to be 0.000613 s⁻¹; the on-rate (kon) was found to be 4.6e+06 M⁻¹ s⁻¹; the t1/2 came to 19 min. In [2], this molecule yielded a Kd of 0.265 nM, a koff of 0.000278 s⁻¹, an on-rate (kon) of 1.05e+06 M⁻¹ s⁻¹ and a t1/2 of 42 min. Also, the “IC50; SEAP reporter, HEK-BLUE IL-33 cells, 15 pM human IL-33 N-His, 20 h” value in assay [9] is 12 pM. The “IC50 (read off the curve); phospho-p38 MFI in CD123+ basophils (average from 2 donors), 10 ng/ml IL-33” value in assay [10] was about 0.3 nM.

A word on the Kd: it is a measure of binding affinity in units of concentration. Broadly, the koff is a measure of how fast the partners let go of each other. The term kon denotes the rate constant with which the complex forms.
